How the values were obtained:
[1] = molecular target: Fyn (UniProt P06241); assay: phosphorylation enrichment, bacterial display (enrichment ratio); higher = better substrate or ligand; peptides without Tyr show the background
[2] = molecular target: EPHB2 (UniProt P29323); assay: as above
[3] = molecular target: Jak2 (UniProt O60674); assay: as above
[4] = test system: c-Abl (mouse); assay: as above
[5] = test system: Fer (mouse); assay: as above
[6] = molecular target: MERTK (UniProt Q12866); assay: as above
[7] = molecular target: FGFR1 (UniProt P11362); assay: as above
[8] = test system: AncSZ; assay: as above
[9] = molecular target: Hck (UniProt P08631); assay: as above
[10] = molecular target: Fes (UniProt P07332); assay: as above
[11] = molecular target: EPHB1 (UniProt P54762); assay: as above
[12] = molecular target: FGFR3 (UniProt P22607); assay: as above
[13] = test system: c-Src; assay: as above
[14] = molecular target: SHP2-C SH2; assay: SH2 binding enrichment of the phosphorylated peptide, bacterial display (enrichment ratio); higher = better substrate or ligand; peptides without Tyr show the background
[15] = molecular target: c-Src SH2; assay: as above
[16] = molecular target: Grb2 SH2 (UniProt P62993); assay: as above
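For SH2 binding enrichment of the phosphorylated peptide, bacterial display in this document: peptide library displayed on the E. coli surface as eCPX fusions, selected cells deep-sequenced, score is each peptide's frequency after selection divided by its frequency in the input.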
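For phosphorylation enrichment, bacterial display in this document: 11-residue human phosphosite peptides and single-mutation variants displayed on the E. coli surface, counted by deep sequencing, each peptide's frequency after selection divided by its frequency in the unselected input library; frequency after pTyr selection over input frequency; kinase dosed for 20-30% of maximal phosphorylation in three min.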

Hck, sequence (P08631 whole entry, looked up): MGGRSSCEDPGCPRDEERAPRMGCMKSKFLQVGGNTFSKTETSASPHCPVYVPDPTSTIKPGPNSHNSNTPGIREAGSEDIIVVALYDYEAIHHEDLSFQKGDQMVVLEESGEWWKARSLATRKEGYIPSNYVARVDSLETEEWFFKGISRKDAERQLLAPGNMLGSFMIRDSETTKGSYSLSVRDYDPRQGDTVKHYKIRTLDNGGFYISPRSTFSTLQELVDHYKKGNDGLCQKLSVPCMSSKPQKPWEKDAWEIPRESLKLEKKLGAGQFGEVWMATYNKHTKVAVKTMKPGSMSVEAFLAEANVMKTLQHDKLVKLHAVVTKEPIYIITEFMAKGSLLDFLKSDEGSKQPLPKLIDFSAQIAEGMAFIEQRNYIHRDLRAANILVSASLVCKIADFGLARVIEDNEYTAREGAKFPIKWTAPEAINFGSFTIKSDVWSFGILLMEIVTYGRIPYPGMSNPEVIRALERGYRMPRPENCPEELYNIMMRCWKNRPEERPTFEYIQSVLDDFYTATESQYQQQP
FGFR3, sequence (P22607 whole entry, looked up): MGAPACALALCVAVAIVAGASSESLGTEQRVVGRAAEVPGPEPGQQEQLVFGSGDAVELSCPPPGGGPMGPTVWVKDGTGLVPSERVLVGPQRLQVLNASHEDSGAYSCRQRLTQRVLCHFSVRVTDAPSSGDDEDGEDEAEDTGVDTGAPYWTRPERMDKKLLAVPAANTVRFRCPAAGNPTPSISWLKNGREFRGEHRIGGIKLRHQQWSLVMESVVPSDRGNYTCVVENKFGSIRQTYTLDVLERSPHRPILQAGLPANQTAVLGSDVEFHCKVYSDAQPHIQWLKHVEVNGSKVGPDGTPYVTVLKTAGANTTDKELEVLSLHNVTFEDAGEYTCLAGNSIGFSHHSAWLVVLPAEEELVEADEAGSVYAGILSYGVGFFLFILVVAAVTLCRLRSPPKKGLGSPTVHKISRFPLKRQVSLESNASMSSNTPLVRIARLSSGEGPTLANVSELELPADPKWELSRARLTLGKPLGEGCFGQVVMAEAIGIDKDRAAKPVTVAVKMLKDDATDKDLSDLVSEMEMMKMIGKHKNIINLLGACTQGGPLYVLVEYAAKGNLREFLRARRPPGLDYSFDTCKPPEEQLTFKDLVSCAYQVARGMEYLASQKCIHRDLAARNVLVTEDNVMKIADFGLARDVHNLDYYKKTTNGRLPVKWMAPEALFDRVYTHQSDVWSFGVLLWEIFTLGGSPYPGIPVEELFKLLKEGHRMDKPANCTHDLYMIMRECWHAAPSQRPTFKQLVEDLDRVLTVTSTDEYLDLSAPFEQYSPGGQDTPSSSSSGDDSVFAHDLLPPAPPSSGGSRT
FGFR1, sequence (P11362 whole entry, looked up): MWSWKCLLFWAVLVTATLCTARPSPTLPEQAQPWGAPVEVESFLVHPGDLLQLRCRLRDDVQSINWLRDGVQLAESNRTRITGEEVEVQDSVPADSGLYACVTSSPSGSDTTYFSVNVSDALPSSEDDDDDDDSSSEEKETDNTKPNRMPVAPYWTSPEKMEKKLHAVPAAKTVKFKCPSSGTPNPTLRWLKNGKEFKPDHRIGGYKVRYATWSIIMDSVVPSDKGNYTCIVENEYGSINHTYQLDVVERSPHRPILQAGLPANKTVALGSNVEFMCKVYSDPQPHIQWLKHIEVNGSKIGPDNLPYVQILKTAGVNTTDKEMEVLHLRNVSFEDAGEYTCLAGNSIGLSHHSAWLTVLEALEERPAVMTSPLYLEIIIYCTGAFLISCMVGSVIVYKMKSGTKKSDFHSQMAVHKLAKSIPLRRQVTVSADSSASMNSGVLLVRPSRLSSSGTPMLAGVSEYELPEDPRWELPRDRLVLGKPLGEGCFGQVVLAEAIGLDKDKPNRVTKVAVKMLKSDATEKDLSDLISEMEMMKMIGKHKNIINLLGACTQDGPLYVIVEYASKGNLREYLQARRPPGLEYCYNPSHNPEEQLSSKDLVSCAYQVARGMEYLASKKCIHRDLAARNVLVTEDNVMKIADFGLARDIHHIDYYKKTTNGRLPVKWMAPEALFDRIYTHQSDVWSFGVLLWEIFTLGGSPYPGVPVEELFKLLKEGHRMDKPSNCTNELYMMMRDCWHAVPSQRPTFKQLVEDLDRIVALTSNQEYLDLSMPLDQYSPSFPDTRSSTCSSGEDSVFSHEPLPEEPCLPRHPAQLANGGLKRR
MERTK, sequence (Q12866 whole entry, looked up): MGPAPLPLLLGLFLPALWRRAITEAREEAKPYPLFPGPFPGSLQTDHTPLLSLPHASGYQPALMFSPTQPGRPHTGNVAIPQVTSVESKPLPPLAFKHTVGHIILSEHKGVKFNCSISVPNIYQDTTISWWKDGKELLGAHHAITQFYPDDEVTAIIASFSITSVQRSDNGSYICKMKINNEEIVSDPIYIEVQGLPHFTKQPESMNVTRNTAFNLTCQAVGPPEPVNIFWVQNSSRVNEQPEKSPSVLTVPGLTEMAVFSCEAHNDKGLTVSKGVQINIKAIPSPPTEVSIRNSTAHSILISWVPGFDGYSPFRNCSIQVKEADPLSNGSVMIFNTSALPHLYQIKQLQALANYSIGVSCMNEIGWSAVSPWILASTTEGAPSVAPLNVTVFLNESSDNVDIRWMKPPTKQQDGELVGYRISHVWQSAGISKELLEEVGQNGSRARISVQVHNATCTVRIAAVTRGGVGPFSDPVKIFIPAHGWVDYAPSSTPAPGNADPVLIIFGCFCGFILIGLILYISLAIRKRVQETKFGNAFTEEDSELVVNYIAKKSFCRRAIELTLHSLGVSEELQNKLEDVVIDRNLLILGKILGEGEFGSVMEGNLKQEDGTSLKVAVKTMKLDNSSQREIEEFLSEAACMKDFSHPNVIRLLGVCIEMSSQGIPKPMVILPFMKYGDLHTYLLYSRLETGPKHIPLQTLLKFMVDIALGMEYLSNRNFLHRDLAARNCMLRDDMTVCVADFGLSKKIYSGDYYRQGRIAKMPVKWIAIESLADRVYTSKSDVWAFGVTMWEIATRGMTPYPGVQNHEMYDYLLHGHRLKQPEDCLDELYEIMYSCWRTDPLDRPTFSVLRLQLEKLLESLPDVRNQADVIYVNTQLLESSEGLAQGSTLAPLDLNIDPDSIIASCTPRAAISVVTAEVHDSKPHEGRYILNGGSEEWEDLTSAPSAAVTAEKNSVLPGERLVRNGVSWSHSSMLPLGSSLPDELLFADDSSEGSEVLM
Grb2 SH2, sequence (P62993 whole entry, looked up, the tested form may be a part): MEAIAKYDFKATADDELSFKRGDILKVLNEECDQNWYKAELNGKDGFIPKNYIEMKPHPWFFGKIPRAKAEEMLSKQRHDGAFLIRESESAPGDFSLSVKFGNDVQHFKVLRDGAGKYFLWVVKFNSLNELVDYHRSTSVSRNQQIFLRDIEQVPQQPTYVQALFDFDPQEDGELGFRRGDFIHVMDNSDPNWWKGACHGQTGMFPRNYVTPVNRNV
EPHB2, sequence (P29323 whole entry, looked up): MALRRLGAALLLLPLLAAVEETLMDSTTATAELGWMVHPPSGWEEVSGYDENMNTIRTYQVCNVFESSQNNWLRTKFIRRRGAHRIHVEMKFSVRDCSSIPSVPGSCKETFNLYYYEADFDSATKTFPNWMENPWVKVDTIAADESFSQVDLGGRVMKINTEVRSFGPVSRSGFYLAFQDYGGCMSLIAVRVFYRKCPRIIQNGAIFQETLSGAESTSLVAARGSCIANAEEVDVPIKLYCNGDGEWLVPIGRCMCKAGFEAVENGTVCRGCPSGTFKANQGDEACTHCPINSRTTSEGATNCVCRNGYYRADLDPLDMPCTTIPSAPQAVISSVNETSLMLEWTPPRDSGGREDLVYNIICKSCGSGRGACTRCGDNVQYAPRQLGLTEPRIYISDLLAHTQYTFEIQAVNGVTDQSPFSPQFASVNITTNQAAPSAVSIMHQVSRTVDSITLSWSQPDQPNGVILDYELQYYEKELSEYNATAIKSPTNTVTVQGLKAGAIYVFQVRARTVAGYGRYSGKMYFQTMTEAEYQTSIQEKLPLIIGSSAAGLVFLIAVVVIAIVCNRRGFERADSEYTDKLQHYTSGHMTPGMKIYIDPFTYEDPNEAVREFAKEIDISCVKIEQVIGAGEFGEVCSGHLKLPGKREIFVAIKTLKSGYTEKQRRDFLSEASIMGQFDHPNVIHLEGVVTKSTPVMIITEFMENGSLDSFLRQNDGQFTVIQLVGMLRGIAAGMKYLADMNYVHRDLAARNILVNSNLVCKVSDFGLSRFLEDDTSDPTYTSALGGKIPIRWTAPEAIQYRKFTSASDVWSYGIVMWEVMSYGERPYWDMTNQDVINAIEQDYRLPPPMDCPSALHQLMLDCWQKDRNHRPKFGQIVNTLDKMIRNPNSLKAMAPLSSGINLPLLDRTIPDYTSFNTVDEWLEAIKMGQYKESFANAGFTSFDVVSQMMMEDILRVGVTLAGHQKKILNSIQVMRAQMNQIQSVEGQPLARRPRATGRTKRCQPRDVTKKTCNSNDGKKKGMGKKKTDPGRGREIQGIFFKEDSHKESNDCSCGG
Fyn, sequence (P06241 whole entry, looked up): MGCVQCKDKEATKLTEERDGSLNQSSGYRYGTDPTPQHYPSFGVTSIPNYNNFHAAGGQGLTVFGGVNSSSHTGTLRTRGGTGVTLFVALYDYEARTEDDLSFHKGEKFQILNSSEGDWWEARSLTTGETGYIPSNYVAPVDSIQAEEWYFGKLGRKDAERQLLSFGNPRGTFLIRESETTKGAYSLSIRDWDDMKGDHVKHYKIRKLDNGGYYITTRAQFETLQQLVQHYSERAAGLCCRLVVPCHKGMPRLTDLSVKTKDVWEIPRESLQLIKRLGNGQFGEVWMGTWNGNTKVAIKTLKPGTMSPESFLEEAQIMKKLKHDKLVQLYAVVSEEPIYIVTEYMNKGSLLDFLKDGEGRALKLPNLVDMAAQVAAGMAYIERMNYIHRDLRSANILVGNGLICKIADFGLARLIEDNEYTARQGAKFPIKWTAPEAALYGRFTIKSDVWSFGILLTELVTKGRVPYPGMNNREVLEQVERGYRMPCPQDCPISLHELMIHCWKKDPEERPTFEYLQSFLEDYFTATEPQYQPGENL

## SPFAVYLFFTF [RPGRIP1_Y826_R827L_YF]
[1]
  phosphorylation enrichment: 0.477
[2]
  phosphorylation enrichment: 0.744
[3]
  phosphorylation enrichment: 0.891
[4]
  phosphorylation enrichment: 0.754
[5]
  phosphorylation enrichment: 0.335
[6]
  phosphorylation enrichment: 0.34
[7]
  phosphorylation enrichment: 0.467
[8]
  phosphorylation enrichment: 0.99
[9]
  phosphorylation enrichment: 0.361
[10]
  phosphorylation enrichment: 0.925
[11]
  phosphorylation enrichment: 0.434
[12]
  phosphorylation enrichment: 0.63
[13]
  phosphorylation enrichment: 0.425
[14]
  SH2 binding enrichment: 0.729
[15]
  SH2 binding enrichment: 0.519
[16]
  SH2 binding enrichment: 1.09

## HNVPIYEGFGL [ACTA1_Y168_A172G_YF]
[1]
  phosphorylation enrichment: 14.9
[2]
  phosphorylation enrichment: 27.6
[3]
  phosphorylation enrichment: 0.575
[4]
  phosphorylation enrichment: 7.97
[5]
  phosphorylation enrichment: 18.8
[6]
  phosphorylation enrichment: 12.1
[7]
  phosphorylation enrichment: 0.507
[8]
  phosphorylation enrichment: 1.35
[9]
  phosphorylation enrichment: 13.5
[10]
  phosphorylation enrichment: 4.3
[11]
  phosphorylation enrichment: 24.2
[12]
  phosphorylation enrichment: 0.519
[13]
  phosphorylation enrichment: 8.62
[14]
  SH2 binding enrichment: 0.823
[15]
  SH2 binding enrichment: 0.513
[16]
  SH2 binding enrichment: 0.85

## PVGVLYEVKVY [PTS_Y128_K129E]
[1]
  phosphorylation enrichment: 0.775
[2]
  phosphorylation enrichment: 0.552
[3]
  phosphorylation enrichment: 1.78
[4]
  phosphorylation enrichment: 2.37
[5]
  phosphorylation enrichment: 0.56
[6]
  phosphorylation enrichment: 0.55
[7]
  phosphorylation enrichment: 0.783
[8]
  phosphorylation enrichment: 1.64
[9]
  phosphorylation enrichment: 0.728
[10]
  phosphorylation enrichment: 1.67
[11]
  phosphorylation enrichment: 0.945
[12]
  phosphorylation enrichment: 1.02
[13]
  phosphorylation enrichment: 0.585
[14]
  SH2 binding enrichment: 0.725
[15]
  SH2 binding enrichment: 0.537
[16]
  SH2 binding enrichment: 0.966

## KQELVYPNKKL [OPTN_Y356_T357P]
[1]
  phosphorylation enrichment: 0.324
[2]
  phosphorylation enrichment: 0.358
[3]
  phosphorylation enrichment: 0.443
[4]
  phosphorylation enrichment: 0.561
[5]
  phosphorylation enrichment: 0.323
[6]
  phosphorylation enrichment: 0.374
[7]
  phosphorylation enrichment: 0.356
[8]
  phosphorylation enrichment: 0.576
[9]
  phosphorylation enrichment: 0.293
[10]
  phosphorylation enrichment: 0.743
[11]
  phosphorylation enrichment: 0.33
[12]
  phosphorylation enrichment: 0.417
[13]
  phosphorylation enrichment: 0.349
[14]
  SH2 binding enrichment: 0.505
[15]
  SH2 binding enrichment: 0.471
[16]
  SH2 binding enrichment: 0.811

## KLNNEHLELNY [MME_Y497_Y497H]
[1]
  phosphorylation enrichment: 0.471
[2]
  phosphorylation enrichment: 0.452
[3]
  phosphorylation enrichment: 0.619
[4]
  phosphorylation enrichment: 0.58
[5]
  phosphorylation enrichment: 0.445
[6]
  phosphorylation enrichment: 0.395
[7]
  phosphorylation enrichment: 0.437
[8]
  phosphorylation enrichment: 0.775
[9]
  phosphorylation enrichment: 0.421
[10]
  phosphorylation enrichment: 0.768
[11]
  phosphorylation enrichment: 0.402
[12]
  phosphorylation enrichment: 0.517
[13]
  phosphorylation enrichment: 0.417
[14]
  SH2 binding enrichment: 0.734
[15]
  SH2 binding enrichment: 0.573
[16]
  SH2 binding enrichment: 0.934

## RGDCMYASLLG [AR_Y269_P271S]
[1]
  phosphorylation enrichment: 6.63
[2]
  phosphorylation enrichment: 1.49
[3]
  phosphorylation enrichment: 1.03
[4]
  phosphorylation enrichment: 1.42
[5]
  phosphorylation enrichment: 1.1
[6]
  phosphorylation enrichment: 4.87
[7]
  phosphorylation enrichment: 1.45
[8]
  phosphorylation enrichment: 1.25
[9]
  phosphorylation enrichment: 7.26
[10]
  phosphorylation enrichment: 1.39
[11]
  phosphorylation enrichment: 2.43
[12]
  phosphorylation enrichment: 1.52
[13]
  phosphorylation enrichment: 6
[14]
  SH2 binding enrichment: 1.99
[15]
  SH2 binding enrichment: 1.12
[16]
  SH2 binding enrichment: 1.26

## FSQETYYRVSN [ABCD1_Y180_Q178E]
[1]
  phosphorylation enrichment: 1.77
[2]
  phosphorylation enrichment: 2.73
[3]
  phosphorylation enrichment: 6.03
[4]
  phosphorylation enrichment: 1.03
[5]
  phosphorylation enrichment: 0.492
[6]
  phosphorylation enrichment: 3.78
[7]
  phosphorylation enrichment: 4.96
[8]
  phosphorylation enrichment: 1.26
[9]
  phosphorylation enrichment: 4.2
[10]
  phosphorylation enrichment: 0.812
[11]
  phosphorylation enrichment: 4.43
[12]
  phosphorylation enrichment: 3.85
[13]
  phosphorylation enrichment: 4.41
[14]
  SH2 binding enrichment: 0.628
[15]
  SH2 binding enrichment: 0.654
[16]
  SH2 binding enrichment: 0.841

## SSMSDYNPLEK [MYOC_Y479_I477S]
[1]
  phosphorylation enrichment: 0.47
[2]
  phosphorylation enrichment: 0.515
[3]
  phosphorylation enrichment: 0.756
[4]
  phosphorylation enrichment: 0.657
[5]
  phosphorylation enrichment: 0.558
[6]
  phosphorylation enrichment: 0.425
[7]
  phosphorylation enrichment: 0.506
[8]
  phosphorylation enrichment: 0.87
[9]
  phosphorylation enrichment: 0.525
[10]
  phosphorylation enrichment: 0.876
[11]
  phosphorylation enrichment: 0.501
[12]
  phosphorylation enrichment: 0.581
[13]
  phosphorylation enrichment: 0.439
[14]
  SH2 binding enrichment: 0.558
[15]
  SH2 binding enrichment: 0.525
[16]
  SH2 binding enrichment: 0.746

Source: the supplement of paper PMC10065799, “High-throughput profiling of sequence recognition by tyrosine kinases and SH2 domains using bacterial peptide display” (eLife, 2023)
